Data published in patent publication US20130189255A1, “FUSIONS AND CONJUGATES OF INSULINOTROPIC AGENTS” (GLAXO GROUP LIMITED, priority 2008, published 2013).

Test: Thermal denaturation by differential scanning calorimetry (DSC)
Type: physicochemical
Conditions: 1 mg/ml, 20 mM citrate pH6.2, 100 mM NaCl, 180° C./hour, non-2-state model
Protocol: Protein was dialysed overnight into 20 mM citrate pH6.2, 100 mM NaCl, filtered and then prepared at concentration of 1 mg/ml as determined by absorbance at 280 nm. Filtered dialysis buffer was used as a reference for all samples. DSC was performed at a heating rate of 180° C./hour. Before each sample a solution of 1% decon, and then buffer were injected to clean the cells and to provide instrumental baseline. Obtained traces were analysed using Origin 7 Microcal software. The DSC trace obtained from the reference buffer was subtracted from the sample trace. Precise molar concentration of the sample was used for calculations (performed automatically by Origin). Baseline setting for both upper and lower baselines linear regions before/after transition were selected and connected using cubic connect function. The resulting graph is fitted to non-2-state model, generating apparent Tm, and ΔH/ΔHv values.

lysozyme
appTm: 76.2 °C
